How the values were obtained:
[1] = biological target: T1, intact von Willebrand factor (VWF) (human, UniProt P04275 764-2813); assay: capture ELISA, VHH coated on plate, concentration series of VWF in buffer, detection with biotinylated VHH B9 and streptavidin-poly HRP
T1 construct: also called uncleaved VWF; purified VWF

[2] = biological target: plasmin-cleaved von Willebrand factor (cVWF) (human) (UniProt P04275); assay: capture ELISA, cVWF in buffer, detection with biotinylated VHH B9
[3] = biological target: plasmin-cleaved von Willebrand factor (cVWF) (human) (UniProt P04275); assay: capture ELISA, VHH coated on plate, concentration series of VWF and cVWF in buffer, detection with biotinylated VHH B9; reference: intact VWF
[4] = biological target: plasmin-cleaved von Willebrand factor (cVWF) (human) (UniProt P04275); assay: capture ELISA, cVWF spiked in citrated normal pooled plasma, detection with biotinylated VHH B9

T1 sequence (P04275 764-2813 limits assumed): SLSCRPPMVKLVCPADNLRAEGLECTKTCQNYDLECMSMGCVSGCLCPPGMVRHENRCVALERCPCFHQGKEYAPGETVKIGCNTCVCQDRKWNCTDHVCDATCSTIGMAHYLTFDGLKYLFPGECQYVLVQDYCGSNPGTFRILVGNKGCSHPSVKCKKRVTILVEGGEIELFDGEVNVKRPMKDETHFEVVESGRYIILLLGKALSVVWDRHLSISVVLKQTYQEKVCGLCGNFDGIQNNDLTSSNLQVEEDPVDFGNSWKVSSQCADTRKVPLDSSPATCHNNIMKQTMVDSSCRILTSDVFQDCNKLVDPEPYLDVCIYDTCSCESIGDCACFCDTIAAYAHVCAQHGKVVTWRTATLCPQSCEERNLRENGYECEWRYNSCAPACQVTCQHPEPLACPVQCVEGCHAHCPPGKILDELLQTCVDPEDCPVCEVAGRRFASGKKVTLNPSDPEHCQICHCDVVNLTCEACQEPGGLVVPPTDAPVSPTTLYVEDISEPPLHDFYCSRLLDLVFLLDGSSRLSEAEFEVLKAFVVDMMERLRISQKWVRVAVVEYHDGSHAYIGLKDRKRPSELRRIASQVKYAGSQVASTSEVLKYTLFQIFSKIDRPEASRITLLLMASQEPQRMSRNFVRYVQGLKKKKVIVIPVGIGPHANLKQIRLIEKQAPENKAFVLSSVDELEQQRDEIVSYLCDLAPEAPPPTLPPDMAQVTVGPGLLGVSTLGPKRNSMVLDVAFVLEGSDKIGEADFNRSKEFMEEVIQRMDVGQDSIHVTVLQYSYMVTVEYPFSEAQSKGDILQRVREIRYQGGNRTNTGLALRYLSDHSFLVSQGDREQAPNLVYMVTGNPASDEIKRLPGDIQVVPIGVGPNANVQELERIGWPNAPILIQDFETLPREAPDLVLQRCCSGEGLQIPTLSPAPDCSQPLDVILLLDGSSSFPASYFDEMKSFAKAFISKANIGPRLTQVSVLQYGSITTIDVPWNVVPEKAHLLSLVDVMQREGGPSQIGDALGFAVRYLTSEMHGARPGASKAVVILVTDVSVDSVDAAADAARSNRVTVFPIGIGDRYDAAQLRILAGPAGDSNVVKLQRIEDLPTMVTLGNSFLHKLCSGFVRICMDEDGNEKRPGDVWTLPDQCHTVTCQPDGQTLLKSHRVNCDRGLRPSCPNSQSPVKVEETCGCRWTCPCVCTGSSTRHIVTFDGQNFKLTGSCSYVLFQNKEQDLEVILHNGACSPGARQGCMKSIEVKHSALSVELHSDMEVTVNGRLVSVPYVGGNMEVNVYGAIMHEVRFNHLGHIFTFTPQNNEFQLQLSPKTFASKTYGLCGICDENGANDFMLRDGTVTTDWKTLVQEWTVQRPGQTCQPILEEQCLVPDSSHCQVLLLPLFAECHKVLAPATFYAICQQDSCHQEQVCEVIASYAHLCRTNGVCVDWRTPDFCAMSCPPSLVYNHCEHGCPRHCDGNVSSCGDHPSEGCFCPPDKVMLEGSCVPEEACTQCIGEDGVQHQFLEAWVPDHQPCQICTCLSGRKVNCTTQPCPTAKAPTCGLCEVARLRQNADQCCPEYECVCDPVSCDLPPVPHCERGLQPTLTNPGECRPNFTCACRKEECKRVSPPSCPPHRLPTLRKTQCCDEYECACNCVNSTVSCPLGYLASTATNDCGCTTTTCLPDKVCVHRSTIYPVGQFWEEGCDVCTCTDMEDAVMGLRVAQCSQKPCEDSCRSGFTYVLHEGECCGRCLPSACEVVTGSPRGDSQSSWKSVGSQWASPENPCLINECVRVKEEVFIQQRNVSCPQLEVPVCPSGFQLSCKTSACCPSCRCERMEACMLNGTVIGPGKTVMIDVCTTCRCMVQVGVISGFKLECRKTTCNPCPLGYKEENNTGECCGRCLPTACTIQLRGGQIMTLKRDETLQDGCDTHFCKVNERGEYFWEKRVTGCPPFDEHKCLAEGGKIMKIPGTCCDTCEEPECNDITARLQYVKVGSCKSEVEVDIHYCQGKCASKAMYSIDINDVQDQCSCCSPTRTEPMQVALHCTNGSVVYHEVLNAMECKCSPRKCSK

Row | binding result [1] | sensitivity of the cVWF ELISA [2] | fold discrimination between VWF and cVWF [3] | sensitivity of the cVWF ELISA [4] | Binder
1 | no binding |  |  |  | negative control VHH-R2 (VHH, Production and tags of this control are not described) VHH: QVQLQESGGGLVQAGGSLRLSCAASGRATSGHGHYGMGWFRQVPGKEREFVAAIRWSGKETWYKDSVKGRFTISRDNAKTTVYLQMNSLKPEDTAVYYCAARPVRVDDISLPVGFDYWGQGTQVTVSS
2 |  | 8 ng/mL | 144 fold | 8 ng/mL | cVWF capture VHH #1 (F5) (VHH, not shown: small tags and cut ends) VHH: EVQLVESGGGLVQAGGSLRLSCAASGQTDSTYTGGWFRQAPGKEREFVATFSWNSGRTHFADSVKGRFTISRDNAKSTVFLQMNSLKPEDTAVYYCAAHRTSLTDYSFRYWGQGTHVTVSS
3 |  | 4 ng/mL |  | 4 ng/mL | cVWF capture VHH #2 (G5) (VHH, not shown: small tags and cut ends) VHH: EVQLVESGGGLVQAGGSLRLSCAVSGRTVSNSMAWFRQAPEKEREFVAAISWNSGRTDYADSVKGRFTISRDNAKNTVDLQMNSLKAEDTAVYYCAVHRVRIEPKEYLYWGQGTQVTVSS

From patent US20250289904A1 (UMC UTRECHT HOLDING B V, published 2025)
